Positions count from the first letter of the chain named.
T1: human LPA3 with FLAG tag (human LPA3 gene transfected cell) (human, UniProt Q9UBY5 1-353)
T1 construct: also called EDG7; not shown: FLAG tag added at the 5' terminal of the gene
T1 sequence: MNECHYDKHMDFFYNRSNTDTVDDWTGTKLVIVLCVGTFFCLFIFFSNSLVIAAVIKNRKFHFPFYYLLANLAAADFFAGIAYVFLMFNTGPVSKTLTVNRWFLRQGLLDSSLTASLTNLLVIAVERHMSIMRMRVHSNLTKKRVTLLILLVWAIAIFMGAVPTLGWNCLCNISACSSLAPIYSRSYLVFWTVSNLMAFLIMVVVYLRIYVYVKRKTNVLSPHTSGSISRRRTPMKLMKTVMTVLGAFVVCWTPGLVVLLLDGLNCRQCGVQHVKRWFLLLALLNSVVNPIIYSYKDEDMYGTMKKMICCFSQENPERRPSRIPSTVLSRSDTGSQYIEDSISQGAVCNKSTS

T2: mouse LPA3 with FLAG tag (mouse LPA3 gene transfected cell) (mouse, UniProt Q9EQ31 1-354)
T2 construct: not shown: FLAG tag added at the 5' terminal of the gene
T2 sequence: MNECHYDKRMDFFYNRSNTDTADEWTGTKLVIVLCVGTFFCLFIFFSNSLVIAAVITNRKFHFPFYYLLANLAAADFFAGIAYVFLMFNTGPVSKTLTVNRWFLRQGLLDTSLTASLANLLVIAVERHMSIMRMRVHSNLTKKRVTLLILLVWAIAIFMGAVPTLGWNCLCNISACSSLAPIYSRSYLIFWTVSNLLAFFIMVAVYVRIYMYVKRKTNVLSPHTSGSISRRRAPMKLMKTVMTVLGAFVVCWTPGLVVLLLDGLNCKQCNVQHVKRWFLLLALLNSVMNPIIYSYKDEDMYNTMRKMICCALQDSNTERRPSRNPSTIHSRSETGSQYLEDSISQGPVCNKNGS

B1: 210309-1-G (antibody, mouse IgG1, V domains shown)
VH: QVQLQQSGAELARPGASMKLSCRASGYTFTSYGISWVKQRTGQGLEWIGEIYPRSGVTYYNEKFKGRATLTADKSSSTAFMELRSLTSEDSAVYFCARESISLRLGWYFDVWGTGTTVTVSS
VL: DIQMTQSPASLSASVGDTVTITCRASENIYRFLAWYQQKQRKSPHLLVYNAKTLAEGVPSRFSGSGSGTQFSLKINSLQPEDFGSYYCQHHYGPPLTFGAGTKLELT
notes: Mouse monoclonal from human LPA1 immunization
B2: 211222-1-G (antibody, mouse IgG1, V domains shown)
VH: QVQVQQSGAELARPGASVRLSCKASGYTFTSFGVNWVKQRTGQGLEWIGQIYPRTGTTYHNERFKGKATLTADKSSSTAYMELRSLTSEDSAVYFCAREGDRYSLAYWGQGTLVTVSA
VL: B1 VL with D17E, R41G, H45Q, A55V, S77N, P94I, T107K
notes: as for B1
B3: 210420-4-E (antibody, mouse IgG1, V domains shown)
VH: QLHLQQSGAELARPGASVRLSCKASGYTFASFGISWVKQRTGQGLEYIGEIYPRSGTTYFNEKFRGKATLSADKSSSTAYMELRSLTSEDSAVYFCAREGVRRYAMDYWGQGTSVTVSS
VL: B1 VL with M4V, D17E, E27G, R31S, R41G, H45Q, N76S, P94I, E105D, T107K
notes: Mouse monoclonal from mouse LPA1 immunization
B4: 210420-3-E (antibody, mouse IgG1, V domains shown)
VH: B3 VH with H3Q, R19K, T41A, S71T, S85R
VL: B1 VL with M4V, D17E, E27G, R31S, R41G, H45Q, P94I, E105D, T107K
notes: as for B3
B5: 210309-2-D (antibody, mouse IgG1, V domains shown)
VH: B1 VH with M18V, R23K, V57N, F64V, R67K, F80Y, S102F
VL: B1 VL with D17E, E27D, R41G, H45Q, S67T, S85I, T107K
notes: as for B1

What was measured:
human LPA1 [1] = target: T3, human LPA1 (human, UniProt Q92633 1-364); assay: cell-based or functional assay
T3 sequence (Q92633 whole entry): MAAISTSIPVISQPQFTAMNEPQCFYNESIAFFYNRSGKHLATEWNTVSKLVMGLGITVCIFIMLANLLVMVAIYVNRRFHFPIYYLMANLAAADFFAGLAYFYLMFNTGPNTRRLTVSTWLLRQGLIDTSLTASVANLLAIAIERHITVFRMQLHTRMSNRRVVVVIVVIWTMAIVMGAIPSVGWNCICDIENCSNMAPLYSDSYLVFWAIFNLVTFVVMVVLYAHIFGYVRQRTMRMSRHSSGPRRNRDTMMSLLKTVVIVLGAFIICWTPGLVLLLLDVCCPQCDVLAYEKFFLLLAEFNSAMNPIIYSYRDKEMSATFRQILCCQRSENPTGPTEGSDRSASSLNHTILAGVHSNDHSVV

mouse LPA1 [2] = target: T4, mouse LPA1 (mouse, UniProt P61793 1-364); assay: cell-based or functional assay
T4 sequence (P61793 whole entry): as the sequence (Q92633 whole entry) above, with I4A, I8S, P22Q, H40Y, I61V, E193D, N194H, I269V, S331N, T335N counted along it

human LPA1 [3] = target: T3, human LPA1; assay: cell-based or functional assay; remark: listed apart in the source
mouse LPA1 [4] = target: T4, mouse LPA1; assay: cell-based or functional assay; remark: listed apart in the source
[5] = target: T5, human LPA2 with FLAG tag (human LPA2 gene transfected cell) (human, UniProt Q9HBW0 1-348); assay: flow cytometry, transfected HEK293FT cells, histogram shift
T5 construct: also called EDG4; not shown: FLAG tag added at the 5' terminal of the gene
T5 sequence (Q9HBW0 other isoform, or with tags, fused parts or gaps): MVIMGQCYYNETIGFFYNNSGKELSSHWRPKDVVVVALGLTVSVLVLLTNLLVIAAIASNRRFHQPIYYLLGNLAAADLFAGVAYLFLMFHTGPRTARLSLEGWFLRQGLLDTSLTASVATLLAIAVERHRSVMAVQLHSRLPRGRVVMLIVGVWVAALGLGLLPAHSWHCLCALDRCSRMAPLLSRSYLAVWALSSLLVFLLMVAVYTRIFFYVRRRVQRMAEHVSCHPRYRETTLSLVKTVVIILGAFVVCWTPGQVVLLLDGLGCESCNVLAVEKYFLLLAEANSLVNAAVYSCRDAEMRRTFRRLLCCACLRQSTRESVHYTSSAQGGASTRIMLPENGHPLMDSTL
Description: (§1) BTEK293FT cell was transfected with 10 μg of an expression vector carrying each synthetic gene using Lipofectamine 2000, to prepare a human LPA1 gene transfected cell, a mouse LPA1 gene transfected cell, a human LPA2 gene transfected cell, a mouse LPA2 gene transfected cell, a human LPA3 gene transfected cell, and a mouse LPA3 gene transfected cell.
(§2) The next day, the cells were washed with PBS, then detached from the cell culture dishes by an enzyme-free cell dissociation buffer (Thermo Fisher Scientific, Inc.), then washed with PBS, and then collected by centrifugation. Goat serum (Thermo Fisher Scientific, Inc.) was diluted by 2 times in FACS buffer (PBS containing 1% o of FBS), into which the cells were suspended at 1×10⁷ cells/mL. This suspension was allowed to stand at 4° C. for 30 minutes to block the cells. The cells were collected by centrifugation and suspended in FACS buffer at 4×10⁶ cells/mL, and this suspension was dispensed into a V-bottom 96-well plate (Thermo Fisher Scientific, Inc.) at 25 μL (1×10⁵ cells)/well.
(§3) The cells were collected by centrifugation and washed with 120 μL of FACS buffer. This washing operation was repeated twice. To the cell sediment, 25 μL each of Goat Anti-Mouse IgG H&L (DyLight 650) (Abcam) that was a secondary antibody diluted by 500 times in FACS buffer was dispensed, then suspended, and then allowed to stand at 4° C. for 1 hour. The cells were washed twice, then suspended in 50 μL of FACS buffer, and the whole content thereof was transferred to a V-bottom 96-well plate (Greiner), to measure the binding of antibodies to the cells using a flow cytometer (Agilent Novocyte).

[6] = target: T1, human LPA3 with FLAG tag (human LPA3 …); assay: as above
Description: as §1, §2, §3

[7] = target: T6, mouse LPA2 with FLAG tag (mouse LPA2 gene transfected cell) (mouse, UniProt Q9JL06 1-348); assay: as above
T6 construct: not shown: FLAG tag added at the 5' terminal of the gene
T6 sequence (Q9JL06 whole entry): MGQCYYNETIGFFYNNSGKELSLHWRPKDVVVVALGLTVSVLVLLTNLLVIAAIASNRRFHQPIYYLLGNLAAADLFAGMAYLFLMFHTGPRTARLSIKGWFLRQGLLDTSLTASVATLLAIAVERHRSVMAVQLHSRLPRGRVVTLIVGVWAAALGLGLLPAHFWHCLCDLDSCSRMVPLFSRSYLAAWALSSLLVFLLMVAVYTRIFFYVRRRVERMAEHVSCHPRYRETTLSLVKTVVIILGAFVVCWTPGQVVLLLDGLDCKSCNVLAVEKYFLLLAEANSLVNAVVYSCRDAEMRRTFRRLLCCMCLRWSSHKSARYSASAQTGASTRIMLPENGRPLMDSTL
Description: as §1, §2, §3

[8] = target: T2, mouse LPA3 with FLAG tag (mouse LPA3 …); assay: as above
Description: as §1, §2, §3

human LPA1 [9] = target: T3, human LPA1; assay: flow cytometry, human LPA1-stably expressing CHO cells, median fluorescence intensity
Source text: (§4) The human LPA1-stably expressing CHO cell and the mouse LPA1-stably expressing CHO cell were washed with PBS, then detached from the cell culture dishes by an enzyme-free cell dissociation buffer (Thermo Fisher Scientific, Inc.), then washed with PBS, and then collected by centrifugation. The human LPA1-stably expressing CHO cell and the mouse LPA1-stably expressing CHO cell were suspended at 1×10⁷ cells/mL in Fc Block (Sci-Tech Biosciences, Inc.) diluted by 500 times in FACS buffer, and then allowed to stand at 4° C. for 30 minutes to block the cells. The cells were collected by centrifugation and suspended in FACS buffer at 4×10⁶ cells/mL, and this suspension was dispensed into a V-bottom 96-well plate (Thermo Fisher Scientific, Inc.) at 25 μL (1×10⁵ cells)/well. As primary antibodies, the eleven types of LPA1 antibodies produced and purified by the method described above and a mouse isotype control antibody (Fujifilm Wako Pure Chemicals Corporation) were diluted stepwise, which was added to each well at 25 μL/well, and allowed to stand at 4° C. for 1 hour. The cells were collected by centrifugation and washed with 120 μL of FACS buffer. This washing operation was repeated twice. To the cell sediment, 25 μL each of Goat Anti-Mouse IgG H&L (DyLight 650) (Abcam) that was a secondary antibody diluted by 500 times in FACS buffer was dispensed, then suspended, and then allowed to stand at 4° C. for 1 hour. The cells were washed twice, then suspended in 50 μL of FACS buffer, and the binding of antibodies to the cells was measured using a flow cytometer (Agilent Novocyte).
(§5) A graph was created, in which a concentration of the antibody was plotted on the […] axis, and a median fluorescence intensity of the flow cytometer histogram was plotted on the horizontal axis. All of the eleven antibodies were confirmed to dose-dependently bind to the human LPA1-stably expressing CHO cell and the mouse LPA1-stably expressing CHO cell. The results of the binding of each antibody to the human LPA1-stably expressing CHO cell are presented in FIG. 2A to FIG. 2K, and the results of the binding of each antibody to the mouse LPA1-stably expressing CHO cell are presented in FIG. 3A to FIG. 3K.

mouse LPA1 [10] = target: T4, mouse LPA1; assay: flow cytometry, mouse LPA1-stably expressing CHO cells, median fluorescence intensity
Source text: as §4, §5

| Binder | Intracellular cAMP signaling inhibition (Inhibition rate %/100 nM) (human LPA1 [1]) [%] | Intracellular cAMP signaling inhibition (Inhibition rate %/100 nM) (mouse LPA1 [2]) [%] | Intracellular cAMP signaling inhibition IC50 (human LPA1 [3]) [nM] | Intracellular cAMP signaling inhibition IC50 (mouse LPA1 [4]) [nM] | binding result [5] | binding result [6] | binding result [7] | binding result [8] | EC50 (human LPA1 [9]) [nM] | EC50 (mouse LPA1 [10]) [nM] |
| --- | --- | --- | --- | --- | --- | --- | --- | --- | --- | --- |
| B1 | 34 | 36 | 40.9 | 197 | no binding (tested: 25 g/mL (so in the source)) | no binding (tested: 25 g/mL (so in the source)) | no binding (tested: 25 g/mL (so in the source)) | no binding (tested: 25 g/mL (so in the source)) | 1.8 | 2.4 |
| B2 | 22 | 49 | 96.8 | 199 | no binding (tested: 25 g/mL (so in the source)) | no binding (tested: 25 g/mL (so in the source)) | no binding (tested: 25 g/mL (so in the source)) | no binding (tested: 25 g/mL (so in the source)) | 4.2 | 2.3 |
| B3 | 24 | 46 | 48.3 | 124 | no binding (tested: 25 g/mL (so in the source)) | no binding (tested: 25 g/mL (so in the source)) | no binding (tested: 25 g/mL (so in the source)) | no binding (tested: 25 g/mL (so in the source)) | 2 | 1.3 |
| B4 | 44 | 50 | 33.1 | 114 | no binding (tested: 25 g/mL (so in the source)) | no binding (tested: 25 g/mL (so in the source)) | no binding (tested: 25 g/mL (so in the source)) | no binding (tested: 25 g/mL (so in the source)) | 1.9 | 1 |
| B5 | 51 | 53 | 18 | 163 | no binding (tested: 25 g/mL (so in the source)) | no binding (tested: 25 g/mL (so in the source)) | no binding (tested: 25 g/mL (so in the source)) | no binding (tested: 25 g/mL (so in the source)) | 1.8 | 2.1 |
